The text below walks through data of paper PMC5291321.

The target of this test is full-length Cbln1 (Cbln1FL) (human) (UniProt P23435). In words: ITC.
Sequence of full-length Cbln1 (Cbln1FL) (human) (P23435 22-193): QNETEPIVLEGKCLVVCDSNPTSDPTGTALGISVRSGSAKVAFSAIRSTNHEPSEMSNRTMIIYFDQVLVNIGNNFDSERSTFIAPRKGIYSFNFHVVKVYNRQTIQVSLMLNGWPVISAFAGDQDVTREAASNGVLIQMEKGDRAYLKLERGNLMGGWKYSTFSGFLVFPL

On to “β-neurexin-1 with spliced sequence #4 (β-NRX1(+4)) (domain or fragment)”, for which the Kd amounted to 43.5 nM and the stoichiometry N (β-NRX1(+4) per Cbln1 hexamer) is 1.
